One experiment has as its target Ab-A lot 1. The experiment is described as follows: AGV HTRF assay (antibody 3 nM, antigen 1 nM, Eu anti-rabbit Fc donor, anti-human XL665 acceptor), signal relative to Ab-A lot 2. (In general: Time-resolved FRET reads energy transfer from a long-lived donor to a nearby acceptor.)
Experiment [1] concerns the target Ab-A lot 9, pooled flow-through of the Ab-1 functionalized Pierce Streptavidin Plus Ultralink resin. The experiment is described as follows: AGV HTRF assay as in Example 6, pooled flow-through of the Ab-1 Streptavidin Plus Ultralink column.
Experiment [2] deals with Ab-A lot 9 (load; eluate from a ceramic hydroxyapatite column). The experiment is described as follows: AGV HTRF assay as in Example 6, load of the Ab-1 NHS Sepharose column.
Experiment [3] shares this target. Put plainly: AGV HTRF assay as in Example 6, load of the Ab-1 Streptavidin Plus Ultralink column.
In experiment [4] the target is Ab-A lot 9, pooled flow-through of the Ab-1 functionalized GE NHS-activated Sepharose 4 Fast Flow resin. The experiment is described as follows: AGV HTRF assay as in Example 6, pooled flow-through of the Ab-1 NHS Sepharose column.

B1: Ab1 (antibody, V domains shown)
VH: QEQLVESGGGLVQPGASLTLTCTASGFSFSNTNYMCWVRQAPGRGLEWVGCMPVGFIASTFYATWAKGRSAISKSSSTAVTLQMTSLTVADTATYFCARESGSGWALNLWGQGTLVTVSS
VL: DPVLTQTPSPVSAAVGGTVTISCQASESVESGNWLAWYQQKPGQPPKLLIYYTSTLASGVPSRFKGSGSGAHFTLTISGVQCDDAATYYCQGAFYGVNTFGGGTEVVVKR
In turn, B1 returned a percentage of control (POC), against Ab-A lot 2 (% of control (POC)) in the experiment with Ab-A lot 1 of 25. The Glycovariant signal in Flow-Through (POC) in experiment [1] turned out to be 1.2 POC; in experiment [4], 6.3 POC. Also, the Glycovariant signal in Load (POC) in experiment [2] and in experiment [3] was 9.3 POC each time.

Source of the values: patent US20180142038A1.
